In FireProtDB (doi:10.1021/bi00178a007):

B1: Tissue-type plasminogen activator, P00750 (parent)
chain: MDAMKRGLCCVLLLCGAVFVSPSQEIHARFRRGARSYQVICRDEKTQMIYQQHQSWLRPVLRSNRVEYCWCNSGRAQCHSVPVKSCSEPRCFNGGTCQQALYFSDFVCQCPEGFAGKCCEIDTRATCYEDQGISYRGTWSTAESGAECTNWNSSALAQKPYSGRRPDAIRLGLGNHNYCRNPDRDSKPWCYVFKAGKYSSEFCSTPACSEGNSDCYFGNGSAYRGTHSLTESGASCLPWNSMILIGKVYTAQNPSAQALGLGKHNYCRNPDGDAKPWCHVLKNRRLTWEYCDVPSCSTCGLRQYSQPQFRIKGGLFADIASHPWQAAIFAKHRRSPGERFLCGGILISSCWILSAAHCFQERFPPHHLTVILGRTYRVVPGEEEQKFEVEKYIVHKEFDDDTYDNDIALLQLKSDSSRCAQESSVVRTVCLPPADLQLPDWTECELSGYGKHEALSPFYSERLKEAHVRLYPSSRCTSQHLLNRTVTDNMLCAGDTRSGGPQANLHDACQGDSGGPLVCLNDGRMTLVGIISWGLGCGQKDVPGVYTKVTNYLDWIRDNMRP

Variants of: B1
Settings: Homo sapiens; pH 8; Thermal; DSC; Tris - Oac/100mM NaOAc 50 mM; transition: 2; structure 1PML; whole UniProt chain shown

Row | Variant | Tm [°C] | change of melting temperature, mutant - wild type (higher = more stable) [°C]
1 | Y290F | 81.5 | 14.8
